# Test results reported in patent US20060094111, “DNA containing variant FRT sequences” (published 2006).
# Residue numbers refer to the chain shown, from its start.
# T1: FLP recombinase (Saccharomyces cerevisiae, UniProt P03870 P03870:1-423)
# T1 sequence: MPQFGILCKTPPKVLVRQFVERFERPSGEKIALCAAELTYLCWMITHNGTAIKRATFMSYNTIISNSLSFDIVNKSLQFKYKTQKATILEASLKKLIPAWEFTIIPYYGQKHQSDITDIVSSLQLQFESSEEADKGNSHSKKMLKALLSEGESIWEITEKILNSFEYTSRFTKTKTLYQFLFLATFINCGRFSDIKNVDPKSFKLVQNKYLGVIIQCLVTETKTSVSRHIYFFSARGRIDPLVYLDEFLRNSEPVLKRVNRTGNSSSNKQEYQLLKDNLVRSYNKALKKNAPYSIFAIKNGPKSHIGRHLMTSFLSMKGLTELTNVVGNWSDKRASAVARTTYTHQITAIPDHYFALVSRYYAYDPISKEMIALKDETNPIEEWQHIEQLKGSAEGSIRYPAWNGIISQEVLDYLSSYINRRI
# B1: f72 mutant FRT (dsDNA)
# DNA 1: TCGAGGACGTCGAAGTTCCTATACTTTCTACAGAATAGGAACTTCTCCGGAA
# DNA 2: CTAGTTCCGGAGAAGTTCCTATTCTGTAGAAAGTATAGGAACTTCGACGTCC
# B2: f2262 mutant FRT (dsDNA)
# DNA 1: B1 DNA 1 with T26A, A30T, C31G
# DNA 2: B1 DNA 2 with G26C, T27A, A31T
# B3: f61 mutant FRT (dsDNA)
# DNA 1: B1 DNA 1 with A30G, C31G
# DNA 2: B1 DNA 2 with G26C, T27C
# B4: f2161 mutant FRT (dsDNA)
# DNA 1: B1 DNA 1 with T26C, A30G, C31G
# DNA 2: B1 DNA 2 with G26C, T27C, A31G
# B5: F3 mutant FRT (dsDNA)
# DNA 1: B1 DNA 1 with T26A, C28T, A30G, C31A
# DNA 2: B1 DNA 2 with G26T, T27C, G29A, A31T
# B6: f2151 mutant FRT (dsDNA)
# DNA 1: B1 DNA 1 with T26C, T29C, C31G
# DNA 2: B1 DNA 2 with G26C, A28G, A31G
# Biological target: T1, FLP recombinase
# Test: recombination of two identical sites; same buffer
# Conditions: tags: untagged; expressed from recombinant adenovirus AxCAFLP (2 micron DNA FLP gene) in 293 cells; chain copies: 4
# Protocol: Whether or not FLP-dependent recombination reaction caused between the two mutant FRT sequences was studied by the assay described below. The DraI-digested plasmid DNA (1.5 μg) prepared in Example 2 and the cell extract containing FLP (25 μl) prepared in Example 1 were added to buffer containing 50 mM Tris-HCl (pH 7.5)/10 mM MgCl₂/5 mM DTT in its final concentration (the volume of reaction solution: 50 μl), and the reaction mixture was incubated at 30° C. for 30 minutes. After the termination of the reaction, 200 μl of sterilized water and 50 […] of 20 mM EDTA solution (pH 8.0) were added to the reaction mixture. The reaction mixture was extracted with phenol/chloroform and with chloroform. The resulting product was precipitated with ethanol, to obtain DNA. The resulting DNA was then solubilized in 20 μl of TE buffer (pH 8.0) containing RNaseA (20 μg/ml). Next, an entire volume of the resultant was digested with restriction enzyme NcoI, and subjected to electrophoresis on agarose gel. Thereafter, DNA bands detected by ethidium bromide (EtBr) staining were analyzed.
# In order to numerically express the reaction efficiency, the ratio of […] was calculated as the recombination ratio (%) between the two FRT sequences.
row,Binder,activity
1,B1,10.9%
2,B2,3.8%
3,B3,2.6%
4,B4,4.5%
5,B5,3.1%
6,B6,2.9%
